According to patent US20160046724A1 (Novartis, published 2016):

T1: BCMA-Fc antigen (UniProt Q02223 5-51, limits assumed)
T1 construct: Bought reagent; also called BCMA fc fusion protein; recombinant BCMA-Fc; not shown: Fc region
T1 chain (looked up): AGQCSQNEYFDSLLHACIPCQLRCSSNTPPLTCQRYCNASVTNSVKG

B1: BCMA-11 CAR (other)
chain: QVQLVQSGGGLVKPGGSLRLSCAASGFTFSDYYMSWIRQAPGKGLEWVSYISSSGNTIYYADSVKGRFTISRDNAKNSLYLQMNSLRAEDTAVYYCARSTMVREDYWGQGTLVTVSSASGGGGSGGRASGGGGSDIVLTQSPLSLPVTLGQPASISCKSSESLVHNSGKTYLNWFHQRPGQSPRRLIYEVSNRDSGVPDRFTGSGSGTDFTLKISRVEAEDVGVYYCMQGTHWPGTFGQGTKLEIKTTTPAPRPPTPAPTIASQPLSLRPEACRPAAGGAVHTRGLDFACDIYIWAPLAGTCGVLLLSLVITLYCKRGRKKLLYIFKQPFMRPVQTTQEEDGCSCRFPEEEEGGCELRVKFSRSADAPAYKQGQNQLYNELNLGRREEYDVLDKRRGRDPEMGGKPRRKNPQEGLYNELQKDKMAEAYSEIGMKGERRRGKGHDGLYQGLSTATKDTYDALHMQALPPR
notes: also called 139110 Full CAR; UG65-93FB
B2: BCMA-13 CAR (other)
chain: QVQLVESGGGLVQPGGSLRLSCAVSGFALSNHGMSWVRRAPGKGLEWVSGIVYSGSTYYAASVKGRFTISRDNSRNTLYLQMNSLRPEDTAIYYCSAHGGESDVWGQGTTVTVSSASGGGGSGGRASGGGGSDIRLTQSPSPLSASVGDRVTITCQASEDINKFLNWYHQTPGKAPKLLIYDASTLQTGVPSRFSGSGSGTDFTLTINSLQPEDIGTYYCQQYESLPLTFGGGTKVEIKTTTPAPRPPTPAPTIASQPLSLRPEACRPAAGGAVHTRGLDFACDIYIWAPLAGTCGVLLLSLVITLYCKRGRKKLLYIFKQPFMRPVQTTQEEDGCSCRFPEEEEGGCELRVKFSRSADAPAYKQGQNQLYNELNLGRREEYDVLDKRRGRDPEMGGKPRRKNPQEGLYNELQKDKMAEAYSEIGMKGERRRGKGHDGLYQGLSTATKDTYDALHMQALPPR
notes: also called 139112 Full CAR; KG66-98AB
B3: BCMA-7 CAR (other)
chain: EVQLVETGGGLVQPGGSLRLSCAVSGFALSNHGMSWVRRAPGKGLEWVSGIVYSGSTYYAASVKGRFTISRDNSRNTLYLQMNSLRPEDTAIYYCSAHGGESDVWGQGTTVTVSSASGGGGSGGRASGGGGSEIVMTQSPATLSVSPGERATLSCRASQSVSSKLAWYQQKPGQAPRLLMYGASIRATGIPDRFSGSGSGTEFTLTISSLEPEDFAVYYCQQYGSSSWTFGQGTKVEIKTTTPAPRPPTPAPTIASQPLSLRPEACRPAAGGAVHTRGLDFACDIYIWAPLAGTCGVLLLSLVITLYCKRGRKKLLYIFKQPFMRPVQTTQEEDGCSCRFPEEEEGGCELRVKFSRSADAPAYKQGQNQLYNELNLGRREEYDVLDKRRGRDPEMGGKPRRKNPQEGLYNELQKDKMAEAYSEIGMKGERRRGKGHDGLYQGLSTATKDTYDALHMQALPPR
notes: also called 139106 Full CAR; QR91-12ZA
B4: BCMA-3 CAR (other)
chain: QVQLVQSGAEVKKPGASVKVSCKASGYTFSNYGITWVRQAPGQGLEWMGWISAYNGNTNYAQKFQGRVTMTRNTSISTAYMELSSLRSEDTAVYYCARGPYYYYMDVWGKGTMVTVSSASGGGGSGGRASGGGGSEIVMTQSPLSLPVTPGEPASISCRSSQSLLYSNGYNYVDWYLQKPGQSPQLLIYLGSNRASGVPDRFSGSGSGTDFKLQISRVEAEDVGIYYCMQGRQFPYSFGQGTKVEIKTTTPAPRPPTPAPTIASQPLSLRPEACRPAAGGAVHTRGLDFACDIYIWAPLAGTCGVLLLSLVITLYCKRGRKKLLYIFKQPFMRPVQTTQEEDGCSCRFPEEEEGGCELRVKFSRSADAPAYKQGQNQLYNELNLGRREEYDVLDKRRGRDPEMGGKPRRKNPQEGLYNELQKDKMAEAYSEIGMKGERRRGKGHDGLYQGLSTATKDTYDALHMQALPPR
notes: Chimeric antigen receptor; 0.0 % CAR+ on JNL cells by BCMA-Fc detection; also called 139102 Full CAR; KR98-03KA
B5: BCMA-12 CAR (other)
chain: EVQLLESGGGLVQPGGSLRLSCAVSGFALSNHGMSWVRRAPGKGLEWVSGIVYSGSTYYAASVKGRFTISRDNSRNTLYLQMNSLRPEDTAIYYCSAHGGESDVWGQGTTVTVSSASGGGGSGGRASGGGGSDIVMTQTPLSLSVTPGQPASISCKSSQSLLRNDGKTPLYWYLQKAGQPPQLLIYEVSNRFSGVPDRFSGSGSGTDFTLKISRVEAEDVGAYYCMQNIQFPSFGGGTKLEIKTTTPAPRPPTPAPTIASQPLSLRPEACRPAAGGAVHTRGLDFACDIYIWAPLAGTCGVLLLSLVITLYCKRGRKKLLYIFKQPFMRPVQTTQEEDGCSCRFPEEEEGGCELRVKFSRSADAPAYKQGQNQLYNELNLGRREEYDVLDKRRGRDPEMGGKPRRKNPQEGLYNELQKDKMAEAYSEIGMKGERRRGKGHDGLYQGLSTATKDTYDALHMQALPPR
notes: also called 139111 Full CAR; HU13-58ZB
B6: BCMA-1 CAR (other)
chain: QVQLVQSGAEVRKTGASVKVSCKASGYIFDNFGINWVRQAPGQGLEWMGWINPKNNNTNYAQKFQGRVTITADESTNTAYMEVSSLRSEDTAVYYCARGPYYYQSYMDVWGQGTMVTVSSASGGGGSGGRASGGGGSDIVMTQTPLSLPVTPGEPASISCRSSQSLLHSNGYNYLNWYLQKPGQSPQLLIYLGSKRASGVPDRFSGSGSGTDFTLHITRVGAEDVGVYYCMQALQTPYTFGQGTKLEIKTTTPAPRPPTPAPTIASQPLSLRPEACRPAAGGAVHTRGLDFACDIYIWAPLAGTCGVLLLSLVITLYCKRGRKKLLYIFKQPFMRPVQTTQEEDGCSCRFPEEEEGGCELRVKFSRSADAPAYKQGQNQLYNELNLGRREEYDVLDKRRGRDPEMGGKPRRKNPQEGLYNELQKDKMAEAYSEIGMKGERRRGKGHDGLYQGLSTATKDTYDALHMQALPPR
notes: also called 139100 Full CAR; ER95-03VA
B7: BCMA-2 CAR (other)
chain: QVQLQESGGGLVQPGGSLRLSCAASGFTFSSDAMTWVRQAPGKGLEWVSVISGSGGTTYYADSVKGRFTISRDNSKNTLYLQMNSLRAEDTAVYYCAKLDSSGYYYARGPRYWGQGTLVTVSSASGGGGSGGRASGGGGSDIQLTQSPSSLSASVGDRVTITCRASQSISSYLNWYQQKPGKAPKLLIYGASTLASGVPARFSGSGSGTHFTLTINSLQSEDSATYYCQQSYKRASFGQGTKVEIKTTTPAPRPPTPAPTIASQPLSLRPEACRPAAGGAVHTRGLDFACDIYIWAPLAGTCGVLLLSLVITLYCKRGRKKLLYIFKQPFMRPVQTTQEEDGCSCRFPEEEEGGCELRVKFSRSADAPAYKQGQNQLYNELNLGRREEYDVLDKRRGRDPEMGGKPRRKNPQEGLYNELQKDKMAEAYSEIGMKGERRRGKGHDGLYQGLSTATKDTYDALHMQALPPR
notes: also called 139101 Full CAR; UR96-08PA
B8: BCMA-5 CAR (other)
chain: EVQLLETGGGLVQPGGSLRLSCAVSGFALSNHGMSWVRRAPGKGLEWVSGIVYSGSTYYAASVKGRFTISRDNSRNTLYLQMNSLRPEDTAIYYCSAHGGESDVWGQGTTVTVSSASGGGGSGGRASGGGGSEIVLTQSPATLSVSPGESATLSCRASQSVSSNLAWYQQKPGQAPRLLIYGASTRASGIPDRFSGSGSGTDFTLTISSLQAEDVAVYYCQQYGSSLTFGGGTKVEIKTTTPAPRPPTPAPTIASQPLSLRPEACRPAAGGAVHTRGLDFACDIYIWAPLAGTCGVLLLSLVITLYCKRGRKKLLYIFKQPFMRPVQTTQEEDGCSCRFPEEEEGGCELRVKFSRSADAPAYKQGQNQLYNELNLGRREEYDVLDKRRGRDPEMGGKPRRKNPQEGLYNELQKDKMAEAYSEIGMKGERRRGKGHDGLYQGLSTATKDTYDALHMQALPPR
notes: also called 139104 Full CAR; AR99-08FA
B9: BCMA-9 CAR (other)
chain: QVQLVESGGGLVKPGGSLRLSCAASGFTFSDYYMSWIRQAPGKGLEWVSYISSSGSTIYYADSVKGRFTISRDNAKNSLYLQMNSLRAEDTAVYYCARESGDGMDVWGQGTTVTVSSASGGGGSGGRASGGGGSDIQMTQSPSSLSASVGDRVTITCRASQSISSYLNWYQQKPGKAPKLLIYAASSLQSGVPSRFSGSGSGTDFTLTISSLQPEDFATYYCQQSYTLAFGQGTKVDIKTTTPAPRPPTPAPTIASQPLSLRPEACRPAAGGAVHTRGLDFACDIYIWAPLAGTCGVLLLSLVITLYCKRGRKKLLYIFKQPFMRPVQTTQEEDGCSCRFPEEEEGGCELRVKFSRSADAPAYKQGQNQLYNELNLGRREEYDVLDKRRGRDPEMGGKPRRKNPQEGLYNELQKDKMAEAYSEIGMKGERRRGKGHDGLYQGLSTATKDTYDALHMQALPPR
notes: also called 139108 Full CAR; OG62-93QB
B10: BCMA-14 CAR (other)
chain: EVQLVETGGGLVQPGGSLRLSCAVSGFALSNHGMSWVRRAPGKGLEWVSGIVYSGSTYYAASVKGRFTISRDNSRNTLYLQMNSLRPEDTAIYYCSAHGGESDVWGQGTTVTVSSASGGGGSGGRASGGGGSETTLTQSPATLSVSPGERATLSCRASQSVGSNLAWYQQKPGQGPRLLIYGASTRATGIPARFSGSGSGTEFTLTISSLQPEDFAVYYCQQYNDWLPVTFGQGTKVEIKTTTPAPRPPTPAPTIASQPLSLRPEACRPAAGGAVHTRGLDFACDIYIWAPLAGTCGVLLLSLVITLYCKRGRKKLLYIFKQPFMRPVQTTQEEDGCSCRFPEEEEGGCELRVKFSRSADAPAYKQGQNQLYNELNLGRREEYDVLDKRRGRDPEMGGKPRRKNPQEGLYNELQKDKMAEAYSEIGMKGERRRGKGHDGLYQGLSTATKDTYDALHMQALPPR
notes: also called 139113 Full CAR; HJ64-62PB
B11: BCMA-4 CAR (other)
chain: QVQLVESGGGLVQPGRSLRLSCAASGFTFSNYAMSWVRQAPGKGLGWVSGISRSGENTYYADSVKGRFTISRDNSKNTLYLQMNSLRDEDTAVYYCARSPAHYYGGMDVWGQGTTVTVSSASGGGGSGGRASGGGGSDIVLTQSPGTLSLSPGERATLSCRASQSISSSFLAWYQQKPGQAPRLLIYGASRRATGIPDRFSGSGSGTDFTLTISRLEPEDSAVYYCQQYHSSPSWTFGQGTKLEIKTTTPAPRPPTPAPTIASQPLSLRPEACRPAAGGAVHTRGLDFACDIYIWAPLAGTCGVLLLSLVITLYCKRGRKKLLYIFKQPFMRPVQTTQEEDGCSCRFPEEEEGGCELRVKFSRSADAPAYKQGQNQLYNELNLGRREEYDVLDKRRGRDPEMGGKPRRKNPQEGLYNELQKDKMAEAYSEIGMKGERRRGKGHDGLYQGLSTATKDTYDALHMQALPPR
notes: also called 139103 Full CAR; JF32-78IB

Molecular target: T1, BCMA-Fc antigen
Assay: flow cytometry of CAR-transduced JNL cells stained with BCMA-Fc antigen
Description: Jurkat-NFAT-luciferase (JNL) cells transduced with BCMA CAR constructs were evaluated for activation in response to BCMA-expressing target cell lines. Small-scale viral supernatant samples were generated in HEK293T cells for transduction of JNL cells. On Day 3 following transduction, BCMA CAR-transduced JNL cells were incubated with target cells at an effector-to-target (E:T) ratio of 6:1. Target cell lines were: K562-BCMA (engineered to stably express BCMA), K562 (parental line), and BCMA positive multiple myeloma cell lines, NCI-H929 and RPMI 8226. JNL activation was measured using Bright-Glo substrate (Promega) on Day 4. CAR expression on transduced JNL was assessed on Day 7 with BCMA-Fc antigen and Biotin-Protein L reagent (Table 7).

| Binder | % CAR+ (BCMA-Fc detection) [%] |
| --- | --- |
| B1 | 42.7 |
| B2 | 32.7 |
| B3 | 30.4 |
| B4 | 0 |
| B5 | 23.4 |
| B6 | 72.1 |
| B7 | 32 |
| B8 | 28.9 |
| B9 | 54.7 |
| B10 | 31.8 |
| B11 | 49.5 |
